Measured values published in publication PMC6573788.

Legend:
[1] = molecular target: ΔRACK1 40S ribosomal subunit (human 40S subunit without RACK1) (human (endogenous in HAP1)) (UniProt P23396); experiment: native gel or EMSA
[2] = molecular target: ΔRACK1 40S ribosomal subunit (human 40S subunit without RACK1) (human (endogenous in HAP1)) (UniProt P23396); experiment: FRET or BRET

Row | Molecule | t1/2 of RACK1 on the ribosome [1] | kobs of the fast phase at 75 nM [2] | kon of the fast phase [2]
1 | native RACK1-ybbR expressed in ΔRACK1 HAP1 cells (from UniProt P63244 1-317) (natural protein) | 15 h |  | 
2 | recombinant Asc1p-ybbR (S. cerevisiae RACK1 ortholog) (natural protein) MASNEVLVLRGTLEGHNGWVTSLATSAGQPNLLLSASRDKTLISWKLTGDDQKFGVPVRSFKGHSHIVQDCTLTADGAYALSASWDKTLRLWDVATGETYQRFVGHKSDVMSVDIDKKASMIISGSRDKTIKVWTIKGQCLATLLGHNDWVSQVRVVPNEKADDDSVTIISAGNDKMVKAWNLNQFQIEADFIGHNSNINTLTASPDGTLIASAGKDGEIMLWNLAAKKAMYTLSAQDEVFSLAFSPNRYWLAAATATGIKVFSLDPQYLVDDLRPEFAGYSKAAEPHAVSLAWSADGQTLFAGYTDNVIRVWQVMTAN |  | 0.2 s⁻¹ | 2e+06 M⁻¹ s⁻¹
